For one substance, Km and kcat results are on record in doi:10.1101/2023.02.21.529347v1.

The test system of the data set is CC1(C)[C@H]2CC=C(C=O)[C@@H]1C2. Description: purified protein. The conditions noted are these: co-substrate F420H2; apparent value; fit with substrate inhibition.

Consider “MSMEG_2850 (Mycolicibacterium smegmatis MC2 155; Y124M)”, for which the Michaelis-Menten constant (Km) is reported as 0.26 ± 0.02 mM and the kcat turned out to be 0.65 ± 0.018 s⁻¹.
